Consider twelve molecules from US20230203155A1 (ALMAC DISCOVERY, published 2023).

Assay [1] addresses T1, human ROR2-hFc fusion protein (extracellular domain) (human).
T1 construct: Whole entry 'human ROR2-Fc (CHO)'; also called hROR2
The experiment in a line: monoclonal phage ELISA on coated ROR2-Fc. (An ELISA detects its analyte on a solid surface through an enzyme-linked reagent.)

Assay [2] deals with T2, human ROR1-hFc fusion protein (extracellular domain) (human).
T2 construct: Whole entry 'human ROR1-Fc (CHO)'; also called hROR1; huROR1-Fc
T2 sequence (chain, as listed by the source limits assumed): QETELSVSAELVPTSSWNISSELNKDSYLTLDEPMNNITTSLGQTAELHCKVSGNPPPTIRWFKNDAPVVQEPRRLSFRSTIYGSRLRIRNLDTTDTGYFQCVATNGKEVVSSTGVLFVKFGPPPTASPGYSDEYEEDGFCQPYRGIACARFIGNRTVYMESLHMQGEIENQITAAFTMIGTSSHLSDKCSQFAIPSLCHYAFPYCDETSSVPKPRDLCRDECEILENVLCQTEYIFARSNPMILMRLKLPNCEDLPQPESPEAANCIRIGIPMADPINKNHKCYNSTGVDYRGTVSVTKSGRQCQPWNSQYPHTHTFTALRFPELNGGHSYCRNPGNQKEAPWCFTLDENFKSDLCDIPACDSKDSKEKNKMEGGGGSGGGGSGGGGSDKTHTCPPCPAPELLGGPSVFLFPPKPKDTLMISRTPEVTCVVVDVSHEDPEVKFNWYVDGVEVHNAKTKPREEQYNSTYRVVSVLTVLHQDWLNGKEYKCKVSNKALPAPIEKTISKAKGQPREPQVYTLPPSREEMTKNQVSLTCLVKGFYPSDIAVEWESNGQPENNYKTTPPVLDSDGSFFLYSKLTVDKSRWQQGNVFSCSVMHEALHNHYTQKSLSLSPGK
Briefly: SPR, ROR1-hFc on chip. A general note: SPR reads the build-up and loss of mass on a sensor chip optically.
Description: (§1) Binding kinetics were determined using a Pioneer Surface Plasmon Resonance (SPR) instrument (SensiQ/Pall ForteBio). […] VNARs and VNAR-Fc molecules were tested at various concentrations and the Ka (M⁻¹s⁻¹), Kd (s⁻¹) and KD (nM) values were determined using QDat software (SensiQ/Pall ForteBio).
(§2) The ability of the VNAR-MMAE conjugates and VNAR-fluorescein conjugates to bind to human ROR1 ECD was determined by SPR using the procedures described above.

Assay [3] addresses T1, human ROR2-hFc fusion protein …. Briefly: SPR, ROR2-hFc on chip.
Description: as §1, §2
For assay [4], the target named is T2, human ROR1-hFc fusion protein …. The experiment in a line: SPR, ROR1-hFc on chip. The source holds these as a separate data set.
Description: as §1
The target of assay [5] is T3, mouse ROR1-Fc fusion protein (mouse).
T3 construct: Whole entry 'mouse ROR1-Fc (CHO)'; also called mROR1
T3 sequence (chain, as listed by the source limits assumed): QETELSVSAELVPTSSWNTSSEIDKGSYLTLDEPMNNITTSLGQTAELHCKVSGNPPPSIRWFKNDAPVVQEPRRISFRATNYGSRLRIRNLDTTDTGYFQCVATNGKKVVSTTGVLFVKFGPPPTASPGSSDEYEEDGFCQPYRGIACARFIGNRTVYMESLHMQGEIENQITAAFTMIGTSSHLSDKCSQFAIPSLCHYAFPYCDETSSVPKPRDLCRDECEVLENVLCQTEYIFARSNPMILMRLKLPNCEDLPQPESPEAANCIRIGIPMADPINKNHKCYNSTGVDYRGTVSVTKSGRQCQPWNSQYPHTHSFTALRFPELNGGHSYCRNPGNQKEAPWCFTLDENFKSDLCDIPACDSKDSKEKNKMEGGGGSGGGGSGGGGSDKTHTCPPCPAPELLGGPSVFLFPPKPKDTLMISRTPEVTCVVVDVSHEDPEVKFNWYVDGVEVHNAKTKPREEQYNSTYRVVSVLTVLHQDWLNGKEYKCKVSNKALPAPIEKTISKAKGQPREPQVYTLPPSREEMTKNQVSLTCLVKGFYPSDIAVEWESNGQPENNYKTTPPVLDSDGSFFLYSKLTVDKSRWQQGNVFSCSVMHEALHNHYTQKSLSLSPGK
Briefly: SPR, mouse ROR1 on chip.
Description: as §1

Assay [6] has as its target T1, human ROR2-hFc fusion protein …. Briefly: SPR, ROR2-hFc on chip. The source holds these as a separate data set.
Description: as §1
(§3) Binding kinetics were determined using a SPR (as previously described) or using Biolayer interferometry (K2 Octet instrument/Pall ForteBio). […] VNARs and VNAR-Fc molecules were tested at various concentrations and the Ka (M−1s−1), Kd (s−1) and KD (nM) values were determined using the Octet data analysis HT software (Pall ForteBio).
Assay [7] concerns the target T4, human ROR1 on the surface of ROR1hi human cancer cell lines (human, UniProt Q01973 30-937).
T4 construct: whole, on cells; Cell line is named under assay; also called cell surface ROR1
Briefly: flow cytometry on A549 (ROR1hi) cells, PE-anti Myc tag Ab.
Description: FIG. 9: Cell surface binding of VNAR (His₆Myc tag) molecules to A549 (ROR1^hi) lung cancer cells by flow cytometry.
Adherent human cancer cells were detached from tissue culture flasks by incubating with 0.1% EDTA/PBS solution at 37° C. for −10 minutes or until cells detached easily. Cells were re-suspended in 5 ml ice-cold PBS/2% FCS in 15 ml tubes and centrifuged at 1500 rpm for 5 mins at 4° C. Supernatant was removed and the cell pellet re-suspended in 1-2 ml of PBS/2% FCS. A cell count was performed using a Z1 Coulter Particle Counter (Beckman Coulter) and 5×10\hat{ }5 cells were aliquoted per test sample. Cells were incubated with 100 μl of either VNAR (His₆Myc tagged), VNAR-Fc molecules or ROR1 mAb and IgG controls for 1 hour on ice. Excess VNAR, VNAR-Fc or mAb was removed by adding 5 ml of ice-cold PBS/2% FCS, followed by centrifugation at 1500 rpm for 5 mins at 4° C. The supernatant was removed and a second wash performed by re-suspending the cell pellet in 1 ml of ice-cold PBS/2% FCS and adding a further 4 ml of ice-cold PBS/2% FCS. Samples were again centrifuged at 1500 rpm for 5 min at 4° C. Supernatant was removed and excess liquid removed by blotting the tubes on tissue paper. […] Cells were incubated with chosen secondary antibody for 30 min on ice. Cells were washed to remove excess antibody as described earlier. […]

In assay [8] the target is T1, human ROR2-hFc fusion protein …. Briefly: SPR, ROR2-hFc on chip. This is another data set of the same source.
In assay [9] the target is T2, human ROR1-hFc fusion protein …. The experiment in a line: SPR, ROR1-hFc on chip. This is another data set of the same source.
Description: as §1
The target of assay [10] is T5, rat ROR1-Fc fusion protein (rat).
T5 construct: Whole entry 'rat ROR1-Fc (CHO)'; also called rROR1
T5 sequence (chain, as listed by the source limits assumed): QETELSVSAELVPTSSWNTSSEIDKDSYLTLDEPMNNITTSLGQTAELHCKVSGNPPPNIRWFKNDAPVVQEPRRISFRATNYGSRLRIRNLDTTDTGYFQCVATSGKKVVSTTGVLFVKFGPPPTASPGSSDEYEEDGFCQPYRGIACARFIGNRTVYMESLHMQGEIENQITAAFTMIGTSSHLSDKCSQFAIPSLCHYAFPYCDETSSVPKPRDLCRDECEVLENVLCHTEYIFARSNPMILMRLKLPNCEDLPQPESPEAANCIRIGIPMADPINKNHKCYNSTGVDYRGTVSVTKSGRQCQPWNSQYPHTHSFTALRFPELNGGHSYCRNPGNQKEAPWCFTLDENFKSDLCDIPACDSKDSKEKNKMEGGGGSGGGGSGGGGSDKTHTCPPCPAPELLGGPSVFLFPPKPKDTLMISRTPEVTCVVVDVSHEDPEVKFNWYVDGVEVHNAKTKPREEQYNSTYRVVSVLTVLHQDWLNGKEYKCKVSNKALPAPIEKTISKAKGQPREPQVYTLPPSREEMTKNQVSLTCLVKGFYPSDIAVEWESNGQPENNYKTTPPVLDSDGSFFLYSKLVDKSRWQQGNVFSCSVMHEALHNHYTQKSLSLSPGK
The experiment in a line: SPR, rat ROR1 on chip.
Description: as §1

For assay [11], the target named is T4, human ROR1 on the surface of ROR1hi …. Briefly: flow cytometry, A549 (ROR1hi) cells, 4°C. (In flow cytometry, cells or beads pass a laser one at a time.)
The target in assay [12] is T2, human ROR1-hFc fusion protein …. Briefly: BLI, ROR1-hFc on sensor, 200 nM HSA present.
Description: as §3
Assay [13] has the same target. Briefly: BLI, ROR1-hFc on sensor.
Description: as §3
In assay [14] the target is T3, mouse ROR1-Fc fusion protein. The experiment in a line: ELISA.
Assay [15] has as its target T6, human serum albumin (human, UniProt P02768 25-609).
T6 construct: also called HSA
The experiment in a line: BLI, HSA on sensor.
Description: as §3

T1 sequence (chain, as listed by the source limits assumed): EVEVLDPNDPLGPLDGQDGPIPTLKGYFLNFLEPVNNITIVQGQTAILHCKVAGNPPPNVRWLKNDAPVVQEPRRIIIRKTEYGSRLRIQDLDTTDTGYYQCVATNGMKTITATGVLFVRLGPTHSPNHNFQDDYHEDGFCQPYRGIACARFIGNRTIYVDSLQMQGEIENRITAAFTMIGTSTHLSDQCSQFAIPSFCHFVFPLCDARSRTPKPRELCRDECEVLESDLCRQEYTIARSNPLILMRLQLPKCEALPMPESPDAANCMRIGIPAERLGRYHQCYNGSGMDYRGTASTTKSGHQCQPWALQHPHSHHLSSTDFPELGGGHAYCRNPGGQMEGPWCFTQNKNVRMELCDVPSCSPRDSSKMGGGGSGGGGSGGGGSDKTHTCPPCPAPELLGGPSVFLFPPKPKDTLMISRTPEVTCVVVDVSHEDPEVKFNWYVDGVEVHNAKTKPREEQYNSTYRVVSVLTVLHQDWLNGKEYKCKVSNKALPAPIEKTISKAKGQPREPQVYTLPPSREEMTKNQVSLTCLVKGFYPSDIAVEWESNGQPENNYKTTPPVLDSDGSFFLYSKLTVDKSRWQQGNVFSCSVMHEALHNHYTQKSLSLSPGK

B1: P3A1 (VNAR)
VNAR: TRVDQTPRTATKETGESLTINCVLTDTSYGLYSTSWFRKNPGTTDWERMSIGGRYVESVNKGAKSFSLRIKDLTVADSATYYCKAREARHPWLRQWYDGAGTVLTVN
notes: also called P3A1 phage clone; P3A1 monoclonal phage
As for B1, in [1], the binding result is reported as “no binding”.

B2: P3A1-P3A1-S-mal-vcMMAE (VNAR)
chain: TRVDQTPRTATKETGESLTINCVLTDTSYGLYSTSWFRKNPGTTDWERMSIGGRYVESVNKGAKSFSLRIKDLTVADSATYYCKAREARHPWLRQWYDGAGTVLTVNGGGGSGGGGSGGGGSGGGGSGGGGSTRVDQTPRTATKETGESLTINCVLTDTSYGLYSTSWFRKNPGTTDWERMSIGGRYVESVNKGAKSFSLRIKDLTVADSATYYCKAREARHPWLRQWYDGAGTVLTVNQASGAHHHHHHGAEFEQKLISEEDL
modifications: C-terminal thiol conjugated to MC vc PAB MMAE
In the case of B2, in [2], binding was put at a Kd of 0.59 nM, the off-rate (koff) is 0.0026 s⁻¹ and the kon was found to be 4.96e+06 M⁻¹ s⁻¹. In addition, the binding result in [3] is recorded as “no binding”.

B3: P3A1-P3A1-Ox-MMAE (VNAR)
chain: B2 chain
modifications: C-terminal aminoxy oxime-linked to benzaldehyde PEG4 MMAE
In assay [2], B3 had an equilibrium dissociation constant (Kd) of 0.78 nM, an off-rate constant (koff) of 0.0032 s⁻¹ and an on-rate constant (kon) of 4.2e+06 M⁻¹ s⁻¹. The binding result in [3] is on record as “no binding”.

B4: P3A1-P3A1-Ox-vcMMAE (VNAR)
chain: B2 chain
modifications: C-terminal aminoxy oxime-linked to benzaldehyde PEG2 vc PAB MMAE
In the case of B4, in assay [2], the Kd stood at 1.43 nM, the koff amounted to 0.00277 s⁻¹ and the kon amounted to 2.07e+06 M⁻¹ s⁻¹. Moreover, the binding result in assay [3] is “no binding”.

B5: E7 his myc (VNAR)
VNAR: TRVDQTPRTATKETGESLTINCVVTGAKYGLAATYWYRKNPGSSNQERISISGRYVESVNKRTMSFSLRIKDLTVADSATYYCKAYPWAMWGQWYDGAGTVLTVNQ
notes: VNAR
Take B5: in assay [4], the dissociation constant (Kd) is 11.1 nM, the koff is 0.0118 s⁻¹ and the kon came out at 1.11e+06 M⁻¹ s⁻¹. Moreover, in assay [5], the dissociation constant (Kd) amounted to 1.4 nM, the koff amounted to 0.002 s⁻¹ and the kon was determined as 1.41e+06 M⁻¹ s⁻¹. In addition, in assay [6], the binding result is “no binding”. Further, the binding result in assay [7] is listed as “binds”.

B6: P3A1 dimer, no tag (VNAR)
chain: TRVDQTPRTATKETGESLTINCVLTDTSYGLYSTSWFRKNPGTTDWERMSIGGRYVESVNKGAKSFSLRIKDLTVADSATYYCKAREARHPWLRQWYDGAGTVLTVNGGGGSGGGGSGGGGSGGGGSGGGGSTRVDQTPRTATKETGESLTINCVLTDTSYGLYSTSWFRKNPGTTDWERMSIGGRYVESVNKGAKSFSLRIKDLTVADSATYYCKAREARHPWLRQWYDGAGTVLTVN
Regarding B6, the binding result in assay [8] is given as “no binding”. In [9], this molecule had a Kd of 0.36 nM, a koff of 0.000598 s⁻¹ and an association rate constant (kon) of 1.67e+06 M⁻¹ s⁻¹.

B7: P3A1 his (VNAR)
VNAR: TRVDQTPRTATKETGESLTINCVLTDTSYGLYSTSWFRKNPGTTDWERMSIGGRYVESVNKGAKSFSLRIKDLTVADSATYYCKAREARHPWLRQWYDGAGTVLTVNQ
notes: VNAR; also called P3A1 6xHis
Turning to B7, the binding result in assay [8] was “no binding”. Moreover, in assay [9], the Kd was 7.8 nM, the koff worked out at 0.0206 s⁻¹ and the kon is 2.92e+06 M⁻¹ s⁻¹.

B8: CPF7 his myc (VNAR)
VNAR: TRVDQTPRTATKETGESLTINCVVTGAKYGLFATYWYRKNPGSSNQERISISGRYVESVNKRTMSFSLRIKDLTVADSATYYCKAVFMPQHWHPAAHWYDGAGTVLTVNQ
notes: VNAR
In [4], B8 showed a Kd of 13.6 nM, an off-rate (koff) of 0.0296 s⁻¹ and a kon of 2.33e+06 M⁻¹ s⁻¹. In assay [5], binding was put at a Kd of 19.1 nM, the off-rate constant (koff) stood at 0.032 s⁻¹ and the kon was determined as 2.26e+06 M⁻¹ s⁻¹. Further, the binding result in [6] is listed as “no binding”. In assay [10], this molecule yielded a dissociation constant Kd of 68.6 nM, an off-rate (koff) of 0.0366 s⁻¹ and a kon of 772000 M⁻¹ s⁻¹.

B9: B1G1-B1G1 HisMyc (VNAR)
chain: TRVDQSPSSLSASVGDRVTITCVLTGANYGLASTYWYRKNPGSSNKEQISISGRYSESVNKGTKSFTLTISSLQPEDSATYYCRAYPWGAGAPWLVQWYDGAGTKVEIKGGGGSGGGGSGGGGSGGGGSGGGGSTRVDQSPSSLSASVGDRVTITCVLTGANYGLASTYWYRKNPGSSNKEQISISGRYSESVNKGTKSFTLTISSLQPEDSATYYCRAYPWGAGAPWLVQWYDGAGTKVEIKQASGAHHHHHHGAEFEQKLISEEDL
notes: VNAR fusion
As for B9, in [11], the “Median YL1-PE” value was determined as 1470.

B10: E7 (VNAR)
VNAR: TRVDQTPRTATKETGESLTINCVVTGAKYGLAATYWYRKNPGSSNQERISISGRYVESVNKRTMSFSLRIKDLTVADSATYYCKAYPWAMWGQWYDGAGTVLTVN
notes: also called E7 phage clone; E7 monoclonal phage
As to B10, in assay [1], the binding result is listed as “no binding”.

B11: P3A1 Wobbe-G4S-BA11-Wobbe-G4S-P3A1 CysHisMyc (VNAR)
chain: TRVDQTPRTATKETGESLTINCVLTDTSYGLYSTSWFRKNPGTTDWERMSIGGRYVESVNKGAKSFSLRIKDLTVADSATYYCKAREARHPWLRQWYDGAGTVLTVNPGVQPSPGGGGSTRVDQSPSSLSASVGDRVTITCVLTDTSYPLYSTYWYRKNPGSSNKEQISISGRYSESVNKGTKSFTLTISSLQPEDSATYYCRAMSTNIWTGDGAGTKVEIKPGVQPSPGGGGSTRVDQTPRTATKETGESLTINCVLTDTSYGLYSTSWFRKNPGTTDWERMSIGGRYVESVNKGAKSFSLRIKDLTVADSATYYCKAREARHPWLRQWYDGAGTVLTVNQACKAHHHHHHGAEFEQKLISEEDL
notes: VNAR fusion; also called P3A1-BA11-P3A1
As to B11, in assay [12], the dissociation constant (Kd) was 1.6 nM. In assay [13], this molecule had a dissociation constant Kd of 2.54 nM, a koff of 0.00044 s⁻¹ and a kon of 173000 M⁻¹ s⁻¹. In addition, in assay [14], the binding result is listed as “binds”. For the same molecule, in assay [15], the dissociation constant Kd came out at 5.58 nM, the off-rate constant (koff) was 0.00069 s⁻¹ and the kon amounted to 124000 M⁻¹ s⁻¹.

B12: BA11 Wobbe-G4S-P3A1-Wobbe-G4S-P3A1-CysHisMyc (VNAR)
chain: TRVDQSPSSLSASVGDRVTITCVLTDTSYPLYSTYWYRKNPGSSNKEQISISGRYSESVNKGTKSFTLTISSLQPEDSATYYCRAMSTNIWTGDGAGTKVEIKPGVQPSPGGGGSTRVDQTPRTATKETGESLTINCVLTDTSYGLYSTSWFRKNPGTTDWERMSIGGRYVESVNKGAKSFSLRIKDLTVADSATYYCKAREARHPWLRQWYDGAGTVLTVNPGVQPSPGGGGSTRVDQTPRTATKETGESLTINCVLTDTSYGLYSTSWFRKNPGTTDWERMSIGGRYVESVNKGAKSFSLRIKDLTVADSATYYCKAREARHPWLRQWYDGAGTVLTVNQACKAHHHHHHGAEFEQKLISEEDL
notes: VNAR fusion; also called BA11-P3A1-P3A1
In assay [12], B12 displayed a Kd of 2.53 nM. In assay [13], this molecule showed a Kd of 3.47 nM, a koff of 0.000447 s⁻¹ and an association rate constant (kon) of 129000 M⁻¹ s⁻¹. In assay [14], the binding result was “binds”. In [15], binding was characterised by a dissociation constant (Kd) of 5.08 nM, the koff was 0.000566 s⁻¹ and the kon was found to be 111000 M⁻¹ s⁻¹.

For orientation: Kd means the free concentration of one partner at which half of the binding sites on the other are occupied at equilibrium, for simple one-to-one binding. A lower Kd goes with a tighter complex. As usually defined, the koff is a measure of how fast the partners let go of each other. Low values mean a long-lived complex, high ones a short-lived complex. The kon is the rate constant with which the complex forms. High values mean fast association, low ones slow association.
